# According to the supplement of paper PMC9112550, “Optimization of the antimicrobial peptide Bac7 by deep mutational scanning” (BMC Biology, 2022):
# Test system: Escherichia coli TOP10
# Assay: shrunken log2 fold change of peptide-encoding DNA abundance (4.5 h post-induction vs induction); higher = less antimicrobial activity (less host growth inhibition)
# Details: time post-induction: 4.5 h; library: site-saturation at positions 5, 18, 19, 20
# 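Further: peptides expressed intracellularly from a pBAD plasmid library in pooled LB shake-flask culture, induced with 0.3% L-arabinose, DNA abundance read by NGS, three biological replicates, DESeq2 with apeglm shrinkage.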
row,Sequence,shrunken log2 fold change
1,RRIRSRPPRLPRPRPRPGFKPRP,0.122
2,RRIRNRPPRLPRPRPRPRLYPRP,-0.142
3,RRIRARPPRLPRPRPRPRFNPRP,0.269
4,RRIRMRPPRLPRPRPRPQVIPRP,-0.0579
5,RRIRKRPPRLPRPRPRPMWFPRP,0.0615
6,RRIRKRPPRLPRPRPRPYWWPRP,-0.454
7,RRIRFRPPRLPRPRPRPLWNPRP,-0.89
8,RRIRFRPPRLPRPRPRPQHVPRP,-0.315
9,RRIRMRPPRLPRPRPRPKNRPRP,0.375
10,RRIRMRPPRLPRPRPRPVWGPRP,0.185
11,RRIRCRPPRLPRPRPRPKDMPRP,-0.531
12,RRIRERPPRLPRPRPRPWDDPRP,-0.0464
13,RRIRGRPPRLPRPRPRPPECPRP,0.483
14,RRIRTRPPRLPRPRPRPWTNPRP,-0.148
15,RRIRWRPPRLPRPRPRPSLKPRP,0.0451
16,RRIRFRPPRLPRPRPRPVSWPRP,0.44
17,RRIRMRPPRLPRPRPRPIRMPRP,0.213
18,RRIRFRPPRLPRPRPRPSCTPRP,-0.407
19,RRIRTRPPRLPRPRPRPEQEPRP,-0.0113
20,RRIRSRPPRLPRPRPRPPWRPRP,0.614
21,RRIRTRPPRLPRPRPRPENNPRP,-0.267
22,RRIRYRPPRLPRPRPRPLIHPRP,-1.38
23,RRIRLRPPRLPRPRPRPNPTPRP,-0.149
24,RRIRFRPPRLPRPRPRPDDVPRP,-0.0133
25,RRIRWRPPRLPRPRPRPGYTPRP,-0.13

row,Sequence,shrunken log2 fold change
1,RRIRKRPPRLPRPRPRPMCGPRP,0.0595
2,RRIRNRPPRLPRPRPRPDQFPRP,-0.0466
3,RRIRQRPPRLPRPRPRPINSPRP,-0.413
4,RRIRQRPPRLPRPRPRPDRWPRP,0.37
5,RRIRPRPPRLPRPRPRPENYPRP,-0.283
6,RRIRPRPPRLPRPRPRPSEDPRP,0.485
7,RRIRARPPRLPRPRPRPNSEPRP,0.0883
8,RRIRTRPPRLPRPRPRPSFGPRP,0.129
9,RRIRNRPPRLPRPRPRPLWKPRP,-0.422
10,RRIRCRPPRLPRPRPRPWCPPRP,-0.281
11,RRIRCRPPRLPRPRPRPYIQPRP,-0.3
12,RRIRHRPPRLPRPRPRPKKEPRP,-0.0501
13,RRIRIRPPRLPRPRPRPFWPPRP,-0.056
14,RRIRWRPPRLPRPRPRPQRQPRP,0.123
15,RRIRCRPPRLPRPRPRPRCHPRP,0.0572
16,RRIRWRPPRLPRPRPRPRCVPRP,0.117
17,RRIRIRPPRLPRPRPRPHVIPRP,-0.0939
18,RRIRTRPPRLPRPRPRPMLFPRP,0.177
19,RRIRHRPPRLPRPRPRPFIVPRP,-0.319
20,RRIRCRPPRLPRPRPRPHTSPRP,-0.498
21,RRIRQRPPRLPRPRPRPVSIPRP,0.0429
22,RRIRMRPPRLPRPRPRPWAAPRP,0.502
23,RRIRRRPPRLPRPRPRPYRIPRP,-0.594
24,RRIRIRPPRLPRPRPRPICYPRP,-0.325
25,RRIRNRPPRLPRPRPRPKVDPRP,0.147

row,Sequence,shrunken log2 fold change
1,RRIRSRPPRLPRPRPRPRYKPRP,-0.154
2,RRIRKRPPRLPRPRPRPNMMPRP,0.172
3,RRIRVRPPRLPRPRPRPSESPRP,0.0556
4,RRIRYRPPRLPRPRPRPSGLPRP,-0.078
5,RRIRLRPPRLPRPRPRPHFNPRP,-0.386
6,RRIRYRPPRLPRPRPRPDCQPRP,-0.0127
7,RRIRQRPPRLPRPRPRPQQSPRP,-0.0224
8,RRIRKRPPRLPRPRPRPEGDPRP,1.24
9,RRIRLRPPRLPRPRPRPWTAPRP,0.0908
10,RRIRNRPPRLPRPRPRPNGAPRP,-0.0902
11,RRIRSRPPRLPRPRPRPVDSPRP,-0.0776
12,RRIRFRPPRLPRPRPRPFYPPRP,-0.824
13,RRIRERPPRLPRPRPRPFSAPRP,-0.161
14,RRIRARPPRLPRPRPRPRTRPRP,1.05
15,RRIRYRPPRLPRPRPRPTRMPRP,0.09
16,RRIRYRPPRLPRPRPRPYPNPRP,-0.36
17,RRIRNRPPRLPRPRPRPEQWPRP,-0.0114
18,RRIRNRPPRLPRPRPRPAFVPRP,0.154
19,RRIRTRPPRLPRPRPRPDQMPRP,0.0643
20,RRIRSRPPRLPRPRPRPFPFPRP,-0.187
21,RRIRRRPPRLPRPRPRPGKTPRP,0.104
22,RRIRGRPPRLPRPRPRPHQGPRP,-0.0236
23,RRIRPRPPRLPRPRPRPFRIPRP,0.000199
24,RRIRLRPPRLPRPRPRPSSFPRP,-0.0574
25,RRIRTRPPRLPRPRPRPITRPRP,-0.0822

row,Sequence,shrunken log2 fold change
1,RRIRLRPPRLPRPRPRPFHVPRP,-0.0193
2,RRIRGRPPRLPRPRPRPVIEPRP,0.599
3,RRIRVRPPRLPRPRPRPNASPRP,0.147
4,RRIRDRPPRLPRPRPRPKYMPRP,-0.326
5,RRIRTRPPRLPRPRPRPTECPRP,-0.0493
6,RRIRPRPPRLPRPRPRPKPKPRP,0.382
7,RRIRKRPPRLPRPRPRPNEAPRP,-0.00686
8,RRIRTRPPRLPRPRPRPDRVPRP,-0.0605
9,RRIRKRPPRLPRPRPRPLDFPRP,0.188
10,RRIRARPPRLPRPRPRPTRIPRP,2.82
11,RRIRPRPPRLPRPRPRPAGTPRP,-0.07
12,RRIRMRPPRLPRPRPRPVALPRP,0.711
13,RRIRDRPPRLPRPRPRPVIYPRP,0.011
14,RRIRGRPPRLPRPRPRPAECPRP,0.196
15,RRIRGRPPRLPRPRPRPDDCPRP,0.152
16,RRIRYRPPRLPRPRPRPEWYPRP,-0.00146
17,RRIRTRPPRLPRPRPRPECSPRP,0.0479
18,RRIRYRPPRLPRPRPRPCPQPRP,-0.0849
19,RRIRWRPPRLPRPRPRPYIDPRP,-0.23
20,RRIRCRPPRLPRPRPRPRMHPRP,0.066
21,RRIRARPPRLPRPRPRPFDWPRP,0.608
22,RRIRLRPPRLPRPRPRPITHPRP,-0.24
23,RRIRQRPPRLPRPRPRPEQIPRP,-0.0247
24,RRIRMRPPRLPRPRPRPKTFPRP,0.0371
25,RRIRHRPPRLPRPRPRPHRYPRP,-0.136

row,Sequence,shrunken log2 fold change
1,RRIRQRPPRLPRPRPRPLEHPRP,-0.109
2,RRIRPRPPRLPRPRPRPYTAPRP,-1.06
3,RRIRQRPPRLPRPRPRPPHKPRP,1.25
4,RRIRERPPRLPRPRPRPGQEPRP,0.0214
5,RRIRFRPPRLPRPRPRPMPIPRP,0.0193
6,RRIRVRPPRLPRPRPRPCMLPRP,-0.606
7,RRIRMRPPRLPRPRPRPFYGPRP,0.0715
8,RRIRQRPPRLPRPRPRPSEIPRP,-0.0356
9,RRIRKRPPRLPRPRPRPNANPRP,0.135
10,RRIRTRPPRLPRPRPRPRCHPRP,-0.334
11,RRIRWRPPRLPRPRPRPLVLPRP,0.0697
12,RRIRKRPPRLPRPRPRPRIGPRP,0.128
13,RRIRGRPPRLPRPRPRPMQTPRP,0.0492
14,RRIRVRPPRLPRPRPRPTFTPRP,-0.073
15,RRIRVRPPRLPRPRPRPALFPRP,0.175
16,RRIRLRPPRLPRPRPRPGPLPRP,0.287
17,RRIRSRPPRLPRPRPRPAKIPRP,-0.0773
18,RRIRVRPPRLPRPRPRPFLMPRP,-0.208
19,RRIRARPPRLPRPRPRPNCVPRP,0.23
20,RRIRDRPPRLPRPRPRPYLWPRP,-0.0398
21,RRIRPRPPRLPRPRPRPIDGPRP,0.023
22,RRIRHRPPRLPRPRPRPNQDPRP,-0.337
23,RRIRSRPPRLPRPRPRPGTYPRP,-1.16
24,RRIRDRPPRLPRPRPRPKIRPRP,-0.0266
25,RRIRVRPPRLPRPRPRPGFRPRP,0.205

row,Sequence,shrunken log2 fold change
1,RRIRGRPPRLPRPRPRPFQKPRP,-0.0668
2,RRIRIRPPRLPRPRPRPCACPRP,-0.889
3,RRIRDRPPRLPRPRPRPQPQPRP,0.517
4,RRIRTRPPRLPRPRPRPTTQPRP,-0.338
5,RRIRPRPPRLPRPRPRPGGYPRP,0.25
6,RRIRFRPPRLPRPRPRPDCKPRP,0.154
7,RRIRFRPPRLPRPRPRPKDVPRP,-0.00433
8,RRIRDRPPRLPRPRPRPYIPPRP,-0.456
9,RRIRERPPRLPRPRPRPLQNPRP,-0.116
10,RRIRYRPPRLPRPRPRPGCMPRP,-0.546
11,RRIRHRPPRLPRPRPRPKCTPRP,-0.0702
12,RRIRDRPPRLPRPRPRPWPVPRP,0.531
13,RRIRNRPPRLPRPRPRPGCIPRP,-0.173
14,RRIRSRPPRLPRPRPRPFDYPRP,-0.0792
15,RRIRQRPPRLPRPRPRPGPYPRP,-0.0528
16,RRIRGRPPRLPRPRPRPKYKPRP,0.0104
17,RRIRGRPPRLPRPRPRPHHHPRP,-0.139
18,RRIRVRPPRLPRPRPRPKSSPRP,-0.0704
19,RRIRVRPPRLPRPRPRPRHPPRP,0.278
20,RRIRRRPPRLPRPRPRPQSGPRP,0.121
21,RRIRGRPPRLPRPRPRPSSIPRP,0.0764
22,RRIRGRPPRLPRPRPRPEEDPRP,-0.0499
23,RRIRTRPPRLPRPRPRPTEPPRP,0.045
24,RRIRLRPPRLPRPRPRPQMYPRP,-0.115
25,RRIRNRPPRLPRPRPRPYEYPRP,-0.675
